Measurements as given in paper PMC8553427.

Target: T1, AtMYB5trunc (truncated MYB5, MYB DNA-binding domain) (Arabidopsis thaliana (Col)) (UniProt Q38850)
T1 sequence: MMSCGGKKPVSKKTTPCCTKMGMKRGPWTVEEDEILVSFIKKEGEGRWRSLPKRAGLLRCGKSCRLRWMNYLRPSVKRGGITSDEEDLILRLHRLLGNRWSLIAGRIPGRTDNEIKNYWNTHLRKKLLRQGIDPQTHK
Assay: EMSA
Details: 20 mM NaCl, 5 mM MgCl2, 20 mM Tris pH 8.0, 10% glycerol, 0.5 mM EDTA, 0.5 mM DTT, poly d(I-C); temperature not stated

Sequence: CGATGGTCACTTTCCTCATACTCTTTCTATATTGACTGTTAGTTTCTGGTCATTCTCGAAACAAACACTACATTGACTGTTAGATTTCTCATTTCAACCAAAGTAAGTAATAAATTCTGAACC (double strand) [ABE4 promoter probe]
- binding: binds more weakly
